# B1: SL2 (unmodified) (structured_RNA)
# RNA: AACCAACUUUCGAUCUCUUGUAGAUCUGUUCU
# Molecular target: NSP1 (SARS-CoV-2, UniProt P0DTD1 1-180)
# Experiment: BLI
binder,measurement,value
B1,Kd,300 ± 54 nM

# — article doi:10.1101/2022.07.18.499583
